From the supplement of paper PMC10567573

B1: SPATS1 (parent)
chain: GRKKYDIDPRNGIPKLTPGDNPYM

Variants of: B1
Assay: protein stability index of a GFP-peptide fusion (GPS, HEK-293T) (PSI 1-6); higher = more stable
Conditions: c terminus: a fixed tail appended
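Note: lentivirally expressed fusions sorted by FACS into six bins by GFP to DsRed ratio, PSI derived from sequencing read proportions per bin multiplied by bin number.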

Variant	protein stability index
L16C	3.44
L16G	4
L16E	4.32
L16T	3.98
L16H	3.75
L16R	3.59
L16N	4.24
L16W	2.67
L16P	3.67
L16F	3.11
L16Q	4.08
L16S	3.67
L16M	3.67
L16K	3.53
L16A	4.09
L16Y	3.22
L16D	4.11
L16I	3.47
L16V	4
M24I	3.46
M24Y	3.73
M24N	4.11
M24Q	4.02
M24T	4.04

Variant	protein stability index
M24K	4.03
M24P	3.98
M24G	3.5
M24W	3.53
M24V	4.22
M24E	4.56
M24H	3.76
M24D	4.4
M24F	3.1
M24A	4.21
M24R	3.59
M24L	3.62
M24S	4.21
M24C	3.73
P22F	3.02
P22R	4.22
P22V	3.42
P22H	3.74
P22M	3.37
P22W	2.62
P22L	3.31
P22D	3.91
P22S	3.54
P22G	3.53

Variant	protein stability index
P22I	3.64
P22T	4.01
P22E	3.85
P22Q	3.98
P22A	4.01
P22Y	3.44
P22C	3.34
P22K	3.89
P22N	3.64
T17R	2.95
T17Q	4.21
T17I	3.19
T17W	2.47
T17C	3.13
T17V	3.2
T17L	3.31
T17S	4.08
T17H	3.34
T17Y	2.89
T17F	2.72
T17P	3.23
T17N	3.48
T17A	3.58
T17D	3.32

Variant	protein stability index
T17E	4.33
T17M	3.02
T17G	3.48
T17K	3.57
N21H	3.33
N21V	3.14
N21A	3.84
N21Q	3.67
N21L	2.88
N21E	4.6
N21K	3.51
N21F	2.78
N21P	3.54
N21Y	3.06
N21D	4.23
N21R	3.41
N21M	3.32
N21G	3.96
N21W	2.63
N21I	3.5
N21C	3.34
N21S	3.72
N21T	3.46
Y23M	3.82

Variant	protein stability index
Y23V	4.18
Y23I	3.72
Y23D	4.84
Y23T	4.6
Y23P	4.41
Y23K	4.41
Y23S	3.94
Y23N	4.43
Y23E	4.61
Y23W	3.05
Y23H	3.93
Y23F	3.37
Y23R	4.34
Y23C	3.26
Y23L	4.48
Y23A	4.3
Y23Q	4.56
Y23G	4.04
P18M	3.18
P18G	2.98
P18K	3.62
P18E	3.92
P18Y	2.46
P18D	3.82

Variant	protein stability index
P18I	3.27
P18R	3.24
P18W	2.73
P18T	3.85
P18Q	3.86
P18V	3.34
P18C	3.38
P18N	4.09
P18H	3.42
P18S	3.55
P18A	3.86
P18F	1.9
P18L	2.81
D20T	3.12
D20S	3.79
D20R	3.74
D20H	3.06
D20L	2.71
D20I	2.18
D20C	3.47
D20E	3.65
D20N	3.12
D20A	3.58
D20W	2.41

Variant	protein stability index
D20K	3.74
D20F	2.33
D20G	3.3
D20P	3.2
D20Q	3.36
D20Y	2.49
D20M	2.46
D20V	3.37
G19M	2.81
G19F	2.63
G19A	3.32
G19H	3.34
G19T	3.59
G19C	3.21
G19I	3.28
G19D	3.83
G19N	3.76
G19Q	3.35
G19P	3.73
G19W	2.3
G19K	3.31
G19E	4.69
G19Y	2.79
